The DeepSol protein solubility set

Experiment: soluble on expression in E. coli; label from the status in PepcDB or PDB records

Sequence	soluble on expression in E. coli
EKPANRQQTLEILAQHIEMDGVRQFLSKSLFKNEDHMAWRFNVDSLLSNYAEIIGWQDIAPTEIPTLFIKGGDSDYLMPEHQPSVQRQFKQAKAHIIANTGHWLHAEKPAEVMRVIRKYISS	not soluble
EKTVRVVINFKKTQKTIVRVSPHASLQELAPIICSKCEFDPLHTLLLKDYQSQEPLDLTKSLNDLGLRELYAMDVNRE	soluble
EKVIIEKAAGDAEAIAFDGRTYMEYHNAVTKSPDALDYPAEPSEKALQSNHFELSIKTEATQGLILWSGKGLERSDYIALAIVDGFVQMMYDLGSKPVVLRSTVPINTNHWTHIKAYRVQREGSLQVGNEAPITGSSPLGATQLDTDGALWLGGMERLSVAHKLPKAYSTGFIGCIRDVIVDRQELHLVEDALNNPTILHCSAK	soluble
EMTDLQSTHKDFLFEIEEVGIKNLVYPVLVDQYQTAGTFSFSTSLTKDEKGINMSRIIESVEKHYDNGIELEFNTLYQVLRTLQTNMKQNAAGVDVSGKWFFDRYSPTTNIKAVGNADVTYGLAIDGDKVTRKELTIEATVTTLCPCSKEISEYSAHNQRGVVTVKTYINKDQNIVDDYKNKILDAMEANASSILYPILKRPDEKRVTERAYENPRFVEDLIRLIAADLVEFDWLDGFDIECRNEESIHQHDAFAKLKYRK	not soluble
ENILAGRAKAEKMRLSAERNRNQMEIYRSLQQGDECRKRQIHDYKNQLNCIRGLVDDNRTKEALRYIGQLTGSLNESIHQINTGHPVVNVLLNQKYQSAREQQISMTMTMNNLSELSLSEEDIVTLLANLLDNAIEACLKLHGDRRIQLKMVLEEEELFLSIRNPVEWEVKISGKTAAAAKEKSGEHGLGLGNVDAVIRKNRGRSTLQCQEGWFCFTAVILQPQR	not soluble
EPLRVLELYSGVGGMHHALRESCIPAQVVAAIDVNTVANEVYKYNFPHTQLLAKTIEGITLEEFDRLSFDMILMSPPCQPFTRIGRQGDMTDSRTNSFLHILDILPRLQKLPKYILLENVKGFEVSSTRDLLIQTIENCGFQYQEFLLSPTSLGIPNSRLRYFLIAKLQSEPLPFQAPGQVLMEFPKIEIHRKNQQDSDLSVKMLKDFLEDDTDVNQYLLPPKSLLRYALLLDIVQPTCRRSVCFTKGYGSYIEGTGSVLQTAEDVQVENIYKSLTNLSQEEQITKLLILKLRYFTPKEIANLLGFPPEFGFPEKITVKQRYRLLGNSLNVHVVAKLIKILYE	soluble
EPMQVVKQRRDAALNALVSGVPFIRFLNITFDRRGDELTGVLNFDDKLIGNPFLPAIHGGVTAAFLEVTAVITLSWAHLFERIESGDLAPEDILTDENMRFPKTIDFTIDYLRSGLPRDAYARAYISRAGRRYASVRVEAWQDHHDKLYAQGTGHFLMP	not soluble
EQEMVQVFIPAQAVGAIIGKKGQHIKQLSRFASASIKIAPPETPDSKVRMVIITGPPEAQFKAQGRIYGKLKEENFFGPKEEVKLETHIRVPASAAGRVIGKGGKTVNELQNLTAAEVVVPRDQTPDENDQVIVKIIGHFYASQMAQRKIRDILAQVKQQHQK	soluble
ESSVNPVVLDFEDGTVMSFGEAWGDSLKCIKKVSVSQDLQRPGNKYALRLDVEFNPNNGWDQGDLGTWIGGVVEGQFDFTGYKSVEFEMFIPYDEFSKSQGGFAYKVVINDGWKELGSEFNITANAGKKVKINGKDYTVIHKAFAIPEDFRTKKRAQLVFQFAGQNSNYKGPIYLDNVRIRPEDA	soluble
ETELEQKAIDYDELERLNSTIVSNLNSGLITVTGDGRIRVFNRYAEALTGIGLAEAYDCHLFDVLPGFRVYADVLANVKRGEFEFIAKMGRKLTIGFSSVPLMLKDSDAAGILLNFQDVT	not soluble
EVQLQQSGAELARPGASVKMSCKASGYTFTSYTMHWVKQRPGQGLEWIGYINPSSGYSNYNQKFKDKATLTADKSSSTAYMQLSSLTSEDSAVYYCSRPVVRLGYNFDYWGQGSTLTVSSAKTTPPSVYPLAPGSAAQTNSMVTLGCLVKGYFPEPVTVTWNSGSLSSGVHTFPAVLQSDLYTLSSSVTVPSSTWPSETVTCNVAHPASSTKVDKKIVP	soluble
EVQLVESGGGLVKPGGSLRLSCAASGFTFSSYSMNWVRQAPGKGLEWVSSISSSSSYISYADSVKGRFTISRDNAKNSLYLQMNSLRAEDTAVYFCARDYDFWSAYYDAFDVWGQGTMVTVSSASTKGPSVFPLAPSSKSTSGGTAALGCLVKDYFPEPVTVSWNSGALTSGVHTFPAVLQSSGLYSLSSVVTVPSSSLGTQTYICNVNHKPSNTKVDKKVEPKSCAADEVDHHHHHH	soluble
EVQLVESGGGLVQPGGSLRLSCAASGFTFTSTGISWVRQAPGKGLEWVGRIYPTNGSTNYADSVKGRFTISADTSKNTAYLQMNSLRAEDTAVYYCARTYGIYDLYVDYTEYVMDYWGQGTLVTVSSASTKGPSVFPLAPSSKSTSGGTAALGCLVKDYFPEPVTVSWNSGALTSGVHTFPAVLQSSGLYSLSSVVTVPSSSLGTQTYICNVNHKPSNTKVDKKVEPKSCDKTHT	soluble
EVRLVSLRRAKAHEGLGFSIRGGSEHGVGIYVSLVEPGSLAEKEGLRVGDQILRVNDKSLARVTHAEAVKALKGSKKLVLSVYSAGRI	soluble
EVVVTGMQKMDKRLFTGAATKLDAEGVKLNGMADISRGLEGRAAGVSVQNVSGTFGTAPKIRVRGATSIYGSSKPLWVVDGVIMEDAVEVSADQLSSGDAETLISSAIAGLNADDIESFQILKDGSATSIYGARAMAGVIVVTTKKGK	not soluble
FASNWVSHTHEVIQTIDTCLYDIVEIESRQRFYLIRGSSSQLMADIDDMKSTLQLNLDKLEQLTRDNPEQNKRIHRFIDLVKQRLNLLNQLVQLKGSGKLDTQEGYDLLNQSQDMSHQVKSLGQEIKSVELVLLSERNTG	not soluble

Sequence	soluble on expression in E. coli
FINDVDLIITVEELDSFLEDQLLQLLGKHDISKTVYGKKNNIFPCCGEYSVDIVKTGINKVLDILKIQKIEISEKLIEKTDIIPLPVRPPNLCAGCMHRTVFYAFKEVSKDLKKQNIQIIFSGDIGCYTLGNAPPLELIDTCLCMGAGISLAGGI	not soluble
FNKKEVLDLTSPKNSIRSRNKLRRTLRNIQERIEDELNHEREALIQDFDYRLAVTYDQMLKDSNIPFSVKDVMAFIEKHTGVRFG	soluble
FNWDRAMYSLITYFLAYKVIDIVIQGVDESKSAFIISRYYEEIGAEIMEQLGKGVTYLDATGGYSGDVRKVVFVIVSRFEEVKVKAILDEIDPDAFLAVGGSMSEVRGGKLMNTKTPHL	not soluble
FTANIKGLTQASRNANDGISIAQTTEGALNEINNNLQRVRELAVQSANSTNSQSDLDSIQAEITQRLNEIDRVSGQTQFNGVKVLAQDNTLTIQVGANDGETIDIDLKQINSQTLGLDTLNVQQKYKVSDTAATVTGYADTTIALDNSTFKASATGLGGTDQKIDGDLKFDDTTGKYYAKVTVTGGTGKDGYYEVSVDKTNGEVTLAGGATSPLTGGLPATATEDVKNVQVANADLTEAKAALTAAGVTGTASVVKMSYTDNNGKTIDGGLAVKVGDDYYSATQNKDGSISINTTKYTADDGTSKTALNKLGGADGKTEVVSIGGKTYAASKAEGHNFKAQPDLAEAAATTTENPLQKIDAALAQVDTLRSDLAAVQNRFNSAITNLGNTVNNLTSAR	soluble
GAKQLSTARKFKMITGKDLFQQQKAMDTELKKEDGEITDLMEFVQYGLYLALFQDNIVKAKSDFSDFRSSFEFDTDGKGLKELVELWQKEI	soluble
GAMAPATCEKPKFLEYKTCVGDLTVVIAKALDEFKEFCIVNAANEHMTHGSGVAKAIADFCGLDFVEYCEDYVKKHGPQQRLVTPSFVKGIQCVNNVVGPRHGDNNLHEKLVAAYKNVLVDGVVNYVVPVLSLGIFGVDFKMSIDAMREAFEGCTIRVLLFSLSQEHIDYFDVTCK	soluble
GAMASLVVPNLMGNKDKADRQKVMSDLVALESTLDMYRLDNNRYPTTEQGLRALVSKPTVQPEPRNYRQDGYIRRLPQDPWGGDYQLLNPGQYSDIDIFSPGPDGVPNTEDDIGNWTLGNAQP	soluble
GAMASSVLVTQEPEIELPREPRPNEECLQILGNAEKGAKFLSDAEIIQLVNAKHIPAYKLETLIETHERGVSIRRQLLSKKLSEPSSLQYLPYRDYNYSLVMGACCENVIGYMPIPVGVAGPLCLDEKEFQVPMATTEGCLVASTNRGCRAIGLGGGASSRVLADGMTRGPVVRLPRACDSAEVKAWLETSEGFAVIKEAFDSTSRFARLQKLHTSIAGRNLYIRFQSRSGDAMGMNMISKGTEKALSKLHEYFPEMQILAVSGNYCTDKKPAAINWIEGRGKSVVCEAVIPAKVVREVLKTTTEAMIEVNINKNLVGSAMAGSIGGYNAHAANIVTAIYIACGQDAAQNVGSSNCITLMEASGPTNEDLYISCTMPSIEIGTVGGGTNLLPQQACLQMLGVQGACKDNPGENARQLARIVCGTVMAGELSLMAALAAGHLVKSHMIHNRSKINLQDLQGACTKKTA	soluble
GAMGGMHLVGVLDIAKDILKANKRLADKNRKLLNKHGVVAFDFMGAIGSGKTLLIEKLIDNLKDKYKIACIAGDVIAKFDAERMEKHGAKVVPLNTGKECHLDAHLVGHALEDLNLDEIDLLFIENVGNLICPADFDLGTHKRIVVISTTEGDDTIEKHPGIMKTADLIVINKIDLADAVGADIKKMENDAKRINPDAEVVLLSLKTMEGFDKVLEFIEKSVKEVK	soluble
GAMGNKEKADQQKAITDIVALENALDMYKLDNSVYPTTDQGLEALVTKPSSPEPRNYRNGGYIKRLPKDPWGNEYQYMSPGDKGTIDIFTLGADGQEGGEGAAADIGNWNMQDFQ	soluble
GAMGSDFLLGNPFSSPVGQRIEKATDGSLQSEDWALNMEICDIINETEEGPKDALRAVKKRIVGNKNFHEVMLALTVLETCVKNCGHRFHVLVASQDFVESVLVRTILPKNNPPTIVHDKVLNLIQSWADAFRSSPDLTGVVTIYEDLRRKGLEFPM	soluble
GAMGSGDTQLFNRAVSMVEKNKDIRSLLQCDDGITGKERLKAYGELITNDKWTRNRPIVSTKKLDKEGRTHHYMRFHVESKKKIALVHLEAKESKQNYQPDFINMYVDVPGEKRYYLIKPKLHPVSN	soluble
GAMGSKISNIFEDVEFCVMSGTDSQPKPDLENRIAEFGGYIVQNPGPDTYCVIAGSENIRVKNIILSNKHDVVKPAWLLECFKTKSFVPWQPRFMIHMCPSTKEHFAREYDCYGDSYFIDTDLNQLKEVFSGIKNSNEQTPEEMASLIADLEYRYSWDCSPLSMFRRHTVYLDSYAVINDLSTKNEGTRLAIKALELRFHGAKVVSCLAEGVSHVIIGEDHSRVADFKAFRRTFKRKFKILKESWVTDSIDKCELQEENQYLI	soluble
GAMMPVPNPTMPVKGAGTTLWVYKGSGDPYANPLSDVDWSRLAKVKDLTPGELTAESYDDSYLDDEDADWTATGQGQKSAGDTSFTLAWMPGEQGQQALLAWFNEGDTRAYKIRFPNGTVDVFRGWVSSIGKAVTAKEVITRTVKVTNVGRPSMAE	soluble
GAMRIMRPDDANVAGNVHGGTILKMIEEAGAIISTRHCNSQNGERCVAALARVERTDFLSPMCIGEVAHVSAEITYTSKHSVEVQVHVMSENILTGTKKLTNKATLWYVPLSLKNVDKVLEVPPIVYLRQEQEEEGRKRYEAQKLERMETK	soluble
GATNEVNVDAIKQLYMDCKNEADKFDVLTELYGLMTIGSSIIFVATKKTANVLYGKLKSEGHEVSILHGDLQTQERDRLIDDFREGRSKVLITTNVLARGIDIPTVSMVVNYDLPTLANGQADPATYIHRIGRTGRFGRKGVAISFVHDKNSFNILSAIQKYFGDIEMTRVPTDDWDEVEKIVKKVLKD	soluble
